Data taken from patent publication US20170000850A1.

Molecular target: CD137 ligand (CD137L) (human) (UniProt P41273)
Assay: cell-based or functional assay

Sequence of UniProt P41273 (P41273 whole entry): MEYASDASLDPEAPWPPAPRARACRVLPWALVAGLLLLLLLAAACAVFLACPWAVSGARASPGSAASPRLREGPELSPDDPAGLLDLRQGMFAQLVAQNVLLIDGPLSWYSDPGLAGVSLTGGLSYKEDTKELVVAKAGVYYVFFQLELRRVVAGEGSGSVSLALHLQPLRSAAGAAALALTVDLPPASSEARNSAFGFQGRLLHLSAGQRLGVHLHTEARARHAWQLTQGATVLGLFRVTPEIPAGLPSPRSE

IL-8 production by monocytes co-cultured for 5 days (ELISA): 2 fold
Substance: RBC-CD137-Fc (biotinylated CD137-Fc conjugated through avidin to biotinylated red blood cells) (from UniProt Q07011 24-186) (Fc fusion)
